In the experiment the target is T1, HA-tagged PXL-1 full-length (residues 1-413) (C. elegans, UniProt Q09476 1-413).
T1 sequence (looked up): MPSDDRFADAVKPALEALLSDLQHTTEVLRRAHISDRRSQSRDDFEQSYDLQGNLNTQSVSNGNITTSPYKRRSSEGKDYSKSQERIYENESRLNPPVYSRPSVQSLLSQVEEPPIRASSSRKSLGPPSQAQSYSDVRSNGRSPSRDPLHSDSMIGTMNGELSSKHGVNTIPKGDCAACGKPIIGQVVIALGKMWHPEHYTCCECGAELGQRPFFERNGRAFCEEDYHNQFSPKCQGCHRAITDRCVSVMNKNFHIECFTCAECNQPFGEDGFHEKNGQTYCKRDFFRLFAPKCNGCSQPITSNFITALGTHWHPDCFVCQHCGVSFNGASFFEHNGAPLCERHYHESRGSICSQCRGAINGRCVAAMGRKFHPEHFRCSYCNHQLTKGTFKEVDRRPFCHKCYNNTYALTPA
In words: pull-down.

B1: MBP fusion of UNC-95 full-length (natural protein, C. elegans, UniProt Q9NEZ5 1-350, looked up)
chain: MTISPQPSHQQFESYQWTTESRSSQQRHGTGTPSQDGRLSAIPDPVERHVARWRSESRNSNKDKVFRNDEEFSQQDEIVNGTLTALKNDVEQTTEIIRRKQEQMRMERRQFQTEMEVNGRISIDPTDDWLAARLKAVSSDDMNQQLVKLKQDQRQNAVTDTLAALVYDVNATTEVLRRGQRGRDGEDGNKKKKEEIEYTLRLTPAPEEQIPQRPKIPEDDNMETDDYSRQYGVQMSEETDSLRRRRARSTTPRRTLHISGSPPPPAAAVCAYCSEEIDGAILTALAPNSERAQKFHTYHFMCTYCQKALNMHGTYREHDLKPYCHDCFYKLYNGLQYAPDDHQASIEKLI
As to B1, the binding result is “binds”.

Values taken from PMC3135480 (Molecular Biology of the Cell, 2011).
